In publication PMC11314397, “Purification and Characterization of Proteinaceous Thermostable α-Amylase Inhibitor from Sardinian Common Bean Nieddone Cultivar (Phaseolus vulgaris L.)” (Plants, 2024) one finds Ki and inhibitory power against α-amylase, CNP-G3 assay; susceptibility against that of human salivary and porcine pancreatic α-amylase data, which are given here for one molecule.

By Ki is commonly meant a measure of affinity in units of concentration, obtained from inhibition or displacement. Read a low Ki as a stronger hold on the target.

For assay [1], the target named is T1, α-amylase from porcine pancreas (porcine, UniProt P00690 16-511).
T1 construct: pancreatic α-amylase, pig, from porcine pancreas; also called porcine pancreatic α-amylase; pig α-amylase; source: bought: Sigma-Aldrich (Type VI-B A3176-2.5MU)
T1 sequence (looked up): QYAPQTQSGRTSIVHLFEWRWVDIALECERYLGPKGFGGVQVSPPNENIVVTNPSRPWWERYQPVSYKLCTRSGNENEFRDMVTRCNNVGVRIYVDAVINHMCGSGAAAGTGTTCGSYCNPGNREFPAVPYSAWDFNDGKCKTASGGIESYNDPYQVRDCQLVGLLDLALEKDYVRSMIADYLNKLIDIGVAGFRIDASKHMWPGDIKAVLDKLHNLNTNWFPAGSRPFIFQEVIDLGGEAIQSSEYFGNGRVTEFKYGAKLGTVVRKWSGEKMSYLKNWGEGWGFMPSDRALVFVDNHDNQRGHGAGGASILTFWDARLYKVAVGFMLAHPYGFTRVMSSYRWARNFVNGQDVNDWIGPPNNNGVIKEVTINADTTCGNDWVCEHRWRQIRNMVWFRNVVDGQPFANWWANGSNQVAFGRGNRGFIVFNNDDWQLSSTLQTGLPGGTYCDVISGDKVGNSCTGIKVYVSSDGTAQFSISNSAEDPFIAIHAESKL
Description: enzyme inhibition kinetics (Lineweaver-Burk); porcine α-amylase with 0, 0.25 and 0.50 µM α-AI, CNP-G3 0.1 to 5 mM as substrate, 250 mM sodium phosphate pH 6.5, 60 mM NaCl, 5 mM CaCl2, 500 mM KSCN, 37 °C, 10 min preincubation; mixed-type inhibition. The note with it: both partners purified.

Assay [2] has as its target α-amylase from Tenebrio molitor (Tenebrio molitor (endogenous in larvae)) (UniProt P56634).

Chain of α-amylase from Tenebrio molitor (Tenebrio molitor (endogenous in larvae)) (P56634 whole entry): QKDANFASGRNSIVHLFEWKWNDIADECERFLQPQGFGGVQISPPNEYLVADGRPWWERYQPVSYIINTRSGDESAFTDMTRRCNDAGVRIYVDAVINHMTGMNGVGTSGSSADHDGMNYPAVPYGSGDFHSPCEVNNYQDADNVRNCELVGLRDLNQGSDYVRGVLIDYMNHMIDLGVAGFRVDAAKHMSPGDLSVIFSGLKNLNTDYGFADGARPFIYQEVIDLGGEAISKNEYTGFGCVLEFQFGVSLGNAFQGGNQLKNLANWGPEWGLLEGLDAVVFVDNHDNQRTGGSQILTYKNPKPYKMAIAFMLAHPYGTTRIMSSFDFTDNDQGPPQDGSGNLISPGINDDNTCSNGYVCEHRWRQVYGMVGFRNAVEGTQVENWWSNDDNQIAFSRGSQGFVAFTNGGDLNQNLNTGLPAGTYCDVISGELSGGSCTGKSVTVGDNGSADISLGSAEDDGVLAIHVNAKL

B1: α-amylase inhibitor (α-AI) purified from Phaseolus vulgaris Nieddone cultivar (complex)
chain 1: ATETSFIIDAFNKTNLILQGDATVSSNGNLQLSYNSYDSMSRAFYSAPIQIRDSTTGNVASFDTNFTMNIRTHRQAN
chain 2: SAVGLDFVLVPVQPESKGDTVTVEFDTFLSRISIDVNNNDIKSVPWDVHDYDGQNAEVRITYNSSTKVFSVSLSNPSTGKSNNVSTTVELEKEVYDWVSVGFSATSGAYQWSYETHDVLSWSFSSKFINLKDQKSERSN
modifications: native seed glycoprotein (N-glycosylated; sites not given); alpha2beta2 tetramer cleaved after Asn77 (mature numbering, = Asn100 of precursor). Reference sequence P02873 used: Nieddone cultivar …
B1: the inhibition constant (Ki) in assay [1] was 170 nM. This molecule yielded an inhibitory power against α-amylase, CNP-G3 assay; susceptibility against that of human salivary and porcine pancreatic α-amylase in assay [2] of 3 fold.
